Measured values as given in publication PMC10598209 (Nature Communications, 2023).
Substitutions are numbered along the chain they refer to. Names may count otherwise.

Key:
[1] = biological target: T1, RSM, RECQ4(348-388) (Homo sapiens, UniProt O94761); experiment: fluorescence anisotropy; low ionic strength (70 mM KCl); FA: 25 mM KPO4 pH 6.5, 70 mM KCl (or 500 mM NaCl), 25 C; ITC: same low-salt buffer, 30 C; NMR dsDNA: 50 mM NaPO4 pH 6.0, 150 mM NaCl, 298 K; NMR G4: 25 mM KPO4; details: protein: recombinant, tags: N-terminal His6-TEV construct (pET-M11)
T1 chain: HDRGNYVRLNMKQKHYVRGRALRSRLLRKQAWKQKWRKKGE

[2] = biological target: T2, RECQ4(322-400) (Homo sapiens, UniProt O94761 322-400); experiment: NMR; only RSM residues affected; FA: 25 mM KPO4 pH 6.5, 70 mM KCl (or 500 mM NaCl), 25 C; ITC: same low-salt buffer, 30 C; NMR dsDNA: 50 mM NaPO4 pH 6.0, 150 mM NaCl, 298 K; NMR G4: 25 mM KPO4; details: protein: recombinant; tags: N-terminal His6-TEV construct (pET-M11); label: 5' FITC on strand 1 (FA); blunt
T2 sequence: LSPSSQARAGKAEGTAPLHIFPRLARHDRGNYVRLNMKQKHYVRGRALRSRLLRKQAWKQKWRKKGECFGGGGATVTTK

[3] = biological target: T1, RSM, RECQ4(348-388); experiment: NMR 2D lineshape analysis (competition with RPA32C); 150 mM NaCl, pH 6.0, 298 K; kon 1.5e10 M-1 s-1; FA: 25 mM KPO4 pH 6.5, 70 mM KCl (or 500 mM NaCl), 25 C; ITC: same low-salt buffer, 30 C; NMR dsDNA: 50 mM NaPO4 pH 6.0, 150 mM NaCl, 298 K; NMR G4: 25 mM KPO4; details: protein: recombinant; tags: N-terminal His6-TEV construct (pET-M11); label: 5' FITC on strand 1 (FA); blunt
[4] = biological target: T1, RSM, RECQ4(348-388); experiment: NMR; 300 mM NaCl, pH 6.0, 288 K; FA: 25 mM KPO4 pH 6.5, 70 mM KCl (or 500 mM NaCl), 25 C; ITC: same low-salt buffer, 30 C; NMR dsDNA: 50 mM NaPO4 pH 6.0, 150 mM NaCl, 298 K; NMR G4: 25 mM KPO4; details: protein: recombinant; tags: N-terminal His6-TEV construct (pET-M11); 10 bp duplex with unpaired TTTT arms (3' of strand 1, 5' of strand 2)
[5] = biological target: T3, RPA32C, RPA32(172−270) (human, UniProt P15927 172-270); experiment: NMR titration; 1H-15N HSQC of 50 or 100 μM 15N-labelled protein (RECQ4 or RPA) with step-wise addition or an excess of the unlabelled partner; buffer and temperature in Supplementary Table 6; details: both partners purified
T3 construct: Used 15N-labelled or unlabelled in NMR; unlabelled in ITC; also called RPA32C domain; source: E. coli BL21(DE3), purified (IMAC, TEV cleavage, second IMAC, Superdex 75); not shown: His6, N-terminal, cleaved

[6] = biological target: T2, RECQ4(322-400); experiment: EMSA; profile indistinguishable from RSM and sRSM; FA: 25 mM KPO4 pH 6.5, 70 mM KCl (or 500 mM NaCl), 25 C; ITC: same low-salt buffer, 30 C; NMR dsDNA: 50 mM NaPO4 pH 6.0, 150 mM NaCl, 298 K; NMR G4: 25 mM KPO4; details: protein: recombinant; tags: N-terminal His6-TEV construct (pET-M11); label: 5' FITC on strand 1; blunt
[7] = biological target: T4, sRSM, RECQ4(358-388) (Homo sapiens, UniProt O94761); experiment: EMSA; FA: 25 mM KPO4 pH 6.5, 70 mM KCl (or 500 mM NaCl), 25 C; ITC: same low-salt buffer, 30 C; NMR dsDNA: 50 mM NaPO4 pH 6.0, 150 mM NaCl, 298 K; NMR G4: 25 mM KPO4; details: label: 5' FITC on strand 1; blunt
T4 chain: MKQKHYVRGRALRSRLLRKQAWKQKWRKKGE

[8] = biological target: T1, RSM, RECQ4(348-388); experiment: as above; details: protein: recombinant; tags: N-terminal His6-TEV construct (pET-M11); label: 5' FITC on strand 1; blunt
[9] = biological target: T3, RPA32C, RPA32(172−270); experiment: NMR titration; 2D lineshape analysis (TITAN v1.6) of 1H-15N HSQC titrations of 50 μM 15N RSM with RPA32C (up to 16× excess) and dsDNA (up to 4× excess) and their competition; four titrations, 24 spectra, 16 residues fitted globally to a competitive binding model; details: both partners purified
[10] = biological target: T1, RSM, RECQ4(348-388); experiment: fluorescence anisotropy; low ionic strength (70 mM KCl); submicromolar; FA: 25 mM KPO4 pH 6.5, 70 mM KCl (or 500 mM NaCl), 25 C; ITC: same low-salt buffer, 30 C; NMR dsDNA: 50 mM NaPO4 pH 6.0, 150 mM NaCl, 298 K; NMR G4: 25 mM KPO4; details: protein: recombinant, tags: N-terminal His6-TEV construct (pET-M11)
[11] = biological target: T4, sRSM, RECQ4(358-388); experiment: NMR; largest CSP at 5'-end G-tetrad; FA: 25 mM KPO4 pH 6.5, 70 mM KCl (or 500 mM NaCl), 25 C; ITC: same low-salt buffer, 30 C; NMR dsDNA: 50 mM NaPO4 pH 6.0, 150 mM NaCl, 298 K; NMR G4: 25 mM KPO4; details: label: 5' FITC (FA); intramolecular hybrid G4
[12] = biological target: T5, RSM 5E mutant (Homo sapiens, UniProt O94761 348-388, R375E;K376E;K380E;K382E;R384E); experiment: NMR; binding not detectable, no droplets; FA: 25 mM KPO4 pH 6.5, 70 mM KCl (or 500 mM NaCl), 25 C; ITC: same low-salt buffer, 30 C; NMR dsDNA: 50 mM NaPO4 pH 6.0, 150 mM NaCl, 298 K; NMR G4: 25 mM KPO4; details: protein: recombinant; tags: N-terminal His6-TEV construct (pET-M11); label: 5' FITC (FA); intramolecular hybrid G4
T5 chain: T1 chain with R28E, K29E, K33E, K35E, R37E

[13] = biological target: T1, RSM, RECQ4(348-388); experiment: ITC; 70 mM KCl, pH 6.5, 30 C; FA: 25 mM KPO4 pH 6.5, 70 mM KCl (or 500 mM NaCl), 25 C; ITC: same low-salt buffer, 30 C; NMR dsDNA: 50 mM NaPO4 pH 6.0, 150 mM NaCl, 298 K; NMR G4: 25 mM KPO4; details: protein: recombinant, tags: N-terminal His6-TEV construct (pET-M11)
[14] = biological target: T4, sRSM, RECQ4(358-388); experiment: stopped-flow/CD/NMR/light scattering global fit; Kd,1: initial 1:1 complex; FA: 25 mM KPO4 pH 6.5, 70 mM KCl (or 500 mM NaCl), 25 C; ITC: same low-salt buffer, 30 C; NMR dsDNA: 50 mM NaPO4 pH 6.0, 150 mM NaCl, 298 K; NMR G4: 25 mM KPO4; details: intramolecular parallel G4
[15] = label: 5' FITC (FA), intramolecular hybrid G4

T3 sequence (P15927 172-270): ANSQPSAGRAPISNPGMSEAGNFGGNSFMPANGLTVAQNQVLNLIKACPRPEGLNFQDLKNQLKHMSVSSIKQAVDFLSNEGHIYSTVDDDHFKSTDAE

B1: ds10 (dsDNA)
DNA 1: CAGCGCTCGG
DNA 2: CCGAGCGCTG
In the case of B1, the Kd ([1]; label: 5' FITC on strand 1 (FA), blunt) is reported as about 1000 nM, the binding result [2] is reported as “binds” and the Kd [3] is reported as 6300 ± 600 nM.

B2: splayed-arm Y14 (dsDNA)
DNA 1: CAGCGCTCGGTTTT
DNA 2: TTTTCCGAGCGCTG
B2: binds [4].

B3: RECQ4(322–400) (domain or fragment, human, UniProt O94761 322-400, looked up)
chain: T2 sequence
notes: Used 15N-labelled or unlabelled in NMR; source: E. coli BL21(DE3), purified (IMAC, TEV cleavage, Mono S, Superdex 75); not shown: His6, N-terminal, cleaved
B3: binds [5].

B4: ds49 (dsDNA)
DNA 1: AGCTACCATGCCTGCACGAATTAAGCAATTCGTAATCATGGTCATAGCT
DNA 2: AGCTATGACCATGATTACGAATTGCTTAATTCGTGCAGGCATGGTAGCT
B4: binds [6]; binds [7]; binds [8].

B5: RECQ4-specific motif (RSM), RECQ4(348–388) (domain or fragment, human, UniProt O94761 348-388, looked up)
chain: T1 chain
notes: H. sapiens RECQ4 residues 348-388 (RSM), cloned in pET-M11; Used 15N-labelled or unlabelled in NMR; unlabelled in ITC; source: E. coli BL21(DE3), purified (IMAC, TEV cleavage, Mono S, Superdex 75); not shown: His6, N-terminal, cleaved
Work on B5 yielded a Kd [9] of 117000 nM and a kon [9] of 2.4e+08 M⁻¹ s⁻¹.

B6: RSM W379A/W383A (domain or fragment, human, UniProt O94761 348-388, looked up)
chain: T1 chain with W32A, W36A
notes: H. sapiens RECQ4 residues 348-388 with W379A and W383A, made from the RECQ4(348–388) expression vector; also called RSM double tryptophan mutant; source: E. coli BL21(DE3), purified; not shown: His6, N-terminal, cleaved
B6: binds [5].

B7: CEB1 parallel G4 (structured_DNA)
DNA: AGGGGGGAGGGAGGGTGG
B7 was tested, and the Kd ([10]; label: 5' FITC or Cy3 (FA, EMSA), parallel G4) was under 1000 nM.

B8: HT hybrid G4 (structured_DNA)
DNA: TTGGGTTAGGGTTAGGGTTAGGGA
B8 was tested, and the binding result [11] was “binds”, the Kd [10, 15] was under 1000 nM and the binding result [12] was “no binding”. The Kd [13, 15] was 420 ± 140 nM.

B9: ss10 (ssDNA)
DNA: CAGCGCTCGG
Work on B9 yielded a Kd ([1]; label: 5' FITC (FA)) of about 1000 nM.

B10: T95-2T parallel G4 (structured_DNA)
DNA: TTGGGTGGGTGGGTGGGT
With B10 the Kd [14] was 3100 ± 200 nM and the Kd ([13]; intramolecular parallel G4) was 200 ± 80 nM.
